Results published in patent US20140212406A1.

What was measured:
fibrin = assay: binding of tPA variants to a solid-phase fibrin surface on PVC plates (3 independent experiments, 12 doses)
[1] = molecular target: N-methyl-D-aspartate receptor on primary cultured mouse cortical neurons (mouse) (UniProt P35438); assay: cell-based or functional assay

Kd (fibrin) | Substance | neuronal death (LDH release, cortical neurons, 50 uM NMDA, 0.3 uM tPA) [1] | potentiation of NMDAR-mediated excitotoxicity (LDH release, cortical neurons, 50 uM NMDA, 0.3 uM tPA) [1]
0.82 nM | rat tPA with complete deletion of its K2 domain (deletion of the amino acids 181 to 262), 6xHis-tagged (from UniProt P19637 33-212; P19637 295-559) (enzyme) | – | –
– | rat wild type tPA (Rattus norvegicus), 6xHis-tagged (from UniProt P19637 33-559) (enzyme) | 71% | 39%
